Measurements from US10646600B2, “HER2 polypeptides useful for imaging and monitoring tumors and cancers” (GE HEALTHCARE LIMITED, priority 2013, dated 2020).
Entries after “also recorded” stand apart in the source; their conditions may differ. Where two headings read alike, the source gives them in different places.

Key:
HER2 positive cell lines = experiment: In vitro uptake assay, HER2 positive cell lines; assay type: cell-based, human
Excerpt: MCF7-vector (piRES), MCF7-p95HER2 and MCF7-HER2 cells were a kind gift of Jose Baselga's laboratory (17). MCF7 clones, MDA-MB-231 (ATCC, Manassas, Va.), MDA-MB-361 (Sigma-Aldrich), SKBR-3 (ATCC) and SKOV-3 (Sigma-Aldrich) cells were maintained in DMEM. AGS (Sigma-Aldrich), HGC-27 (Sigma-Aldrich), NCI-N87 (ATCC) and OE-33 (ATCC) cells were maintained in RPMI (Sigma-Aldrich). A431 cells (Sigma-Aldrich) were maintained in MEM Eagle medium (Sigma-Aldrich). Growth media were supplemented with 10% FCS (Lonza, Basel, Switzerland), glutamine and antibiotics (both Invitrogen, Paisley, United Kingdom). A431 cells were additionally supplemented with 1% non-essential amino acids. All cells were cultured at 37° C. in a humidified atmosphere containing 5% CO2.
For baseline uptake in HER2 positive or negative lineages, 3×10^5 cells were seeded in complete media in 12-well plates (Corning, Tewksbury Mass.) and allowed to recover overnight. Cells were washed twice with serum-free medium and pulsed with 370 KBq in 500 μL serum-free medium for one h. […]
Cells were washed with PBS, trypsinized, neutralized with complete medium and centrifuged. […] The radioactivity of 100 μL lysate was counted on a Packard Cobra II gamma counter (Perkin Elmer). Radioactivity was normalized to applied radioactivity and protein content, which was determined for each sample by BCA assay (Pierce, Rockford, Ill.). […]

SKOV-3 = experiment: Biodistribution, SKOV-3 tumor; assay type: in vivo, mice
Excerpt: (§1) Mice were sacrificed at different time points by exsanguination.

MCF7-p95HER2 = experiment: Biodistribution, MCF7-p95HER2 tumor; assay type: in vivo, mice; conditions: 60 min
Excerpt: as §1

MDA-MB-361 = experiment: Biodistribution, MDA-MB-361 tumor; assay type: in vivo, mice; conditions: 60 min
Excerpt: as §1

human p95HER2 = experiment: Surface Plasmon Resonance, p95HER2 ECD-Fc-6×His; assay type: binding
Method: To characterize the affinity of [^19F]GE-226[SEQ ID NO 1] to HER2 protein, Surface Plasmon Resonance studies were conducted. Human, rhesus and rat HER2-ECD-Fc (SINO Biological, Beijing, China, Cat. Nr: 10004-H02H, 90020-K02H, and 80079-R02H), as well as human HER2-ECD-Fc-6×His (R&D Systems, Minneapolis, Minn., Cat. Nr: 1129-ER) and p95HER2 ECD-Fc-6×His (Syngene, Cambridge, United Kingdom) were diluted with 50 mM sodium acetate pH 4.5 (Biacore (GE Healthcare, Buckinghamshire, UK) coupling buffer) to a final concentration of 10 μg/mL. Antigen coupling to Biacore sensor chip CMS (Cat. Nr: BR-1005-30) was done according to amine coupling protocol from the instrument manual […]. HBS-EP buffer (10 mM HEPES pH 7.4, 150 mM NaCl, 3 mM EDTA and 0.005% surfactant P20; GE Healthcare, Little Chalfont, United Kingdom, Cat. Nr: BR-1006-69) was used as running buffer and as solvent for the substances. The affinity studies were performed using a Biacore T100 (GE Healthcare). [^19F]GE-226 was diluted in HBS-EP buffer to 50 nM, 25 nM, 12.5 nM, 6.25 nM, 3.125 nM, 1.56 nM, 0.78 nM, 0.39 nM, 0.195 nM, 0.097 nM, 0.049 nM and 0 nM. The flow cells of the first chip comprised of blank, human HER2-ECD-Fc-6×His, p95HER2-ECD-Fc-6×His batch I and p95HER2-ECD-Fc-6×His batch II. The flow cells on the second chip contained blank, human HER2-ECD-Fc, rhesus HER2-ECD-Fc and rat HER2 ECD-Fc. […]

rat HER2 = target: T1, rat HER2 (Rattus norvegicus, UniProt P06494); experiment: Surface Plasmon Resonance, rat HER2-ECD-Fc; assay type: binding
T1 construct: Human, rhesus and rat HER2-ECD-Fc (SINO Biological, Beijing, China, Cat. Nr: 10004-H02H, 90020-K02H, and 80079-R02H); Fc (C); purchased SINO Biological 80079-R02H
Method: To characterize the affinity of [^19F]GE-226[SEQ ID NO 1] to HER2 protein, Surface Plasmon Resonance studies were conducted. Human, rhesus and rat HER2-ECD-Fc (SINO Biological, Beijing, China, Cat. Nr: 10004-H02H, 90020-K02H, and 80079-R02H), as well as human HER2-ECD-Fc-6×His (R&D Systems, Minneapolis, Minn., Cat. Nr: 1129-ER) and p95HER2 ECD-Fc-6×His (Syngene, Cambridge, United Kingdom) were diluted with 50 mM sodium acetate pH 4.5 (Biacore (GE Healthcare, Buckinghamshire, UK) coupling buffer) to a final concentration of 10 μg/mL. Antigen coupling to Biacore sensor chip CMS (Cat. Nr: BR-1005-30) was done according to amine coupling protocol from the instrument manual (Syngene). HBS-EP buffer (10 mM HEPES pH 7.4, 150 mM NaCl, 3 mM EDTA and 0.005% surfactant P20; GE Healthcare, Little Chalfont, United Kingdom, Cat. Nr: BR-1006-69) was used as running buffer and as solvent for the substances. The affinity studies were performed using a Biacore T100 (GE Healthcare). [^19F]GE-226 was diluted in HBS-EP buffer to 50 nM, 25 nM, 12.5 nM, 6.25 nM, 3.125 nM, 1.56 nM, 0.78 nM, 0.39 nM, 0.195 nM, 0.097 nM, 0.049 nM and 0 nM. The flow cells of the first chip comprised of blank, human HER2-ECD-Fc-6×His, p95HER2-ECD-Fc-6×His batch I and p95HER2-ECD-Fc-6×His batch II. The flow cells on the second chip contained blank, human HER2-ECD-Fc, rhesus HER2-ECD-Fc and rat HER2 ECD-Fc. The immobilization of the proteins was validated with protein-A (Sigma-Aldrich, St. Louis, Mo., Cat. Nr: P6031) and anti-human IgG antibody (Perkin Elmer, Waltham, Mass., Cat. Nr: NEF803001EA). [^19F]GE-226[SEQ ID NO 1] was pumped in duplicate over cells in randomized order for 60 sec at 50 μL/min flow rate followed by 120 sec of HBS-EP to monitor dissociation. This was followed by regeneration of the chip with 50 mM sodium hydroxide for 30 sec at 30 μL/min flow rate followed by 60 sec run of HBS-EP to stabilize the surface. Kinetic calculations were performed using Langmuir 1:1 binding model and simultaneous calculation of association and dissociation phase.

[1] = listed as 19F-Affibody analogue

T1 sequence (P06494 23-654 limits assumed): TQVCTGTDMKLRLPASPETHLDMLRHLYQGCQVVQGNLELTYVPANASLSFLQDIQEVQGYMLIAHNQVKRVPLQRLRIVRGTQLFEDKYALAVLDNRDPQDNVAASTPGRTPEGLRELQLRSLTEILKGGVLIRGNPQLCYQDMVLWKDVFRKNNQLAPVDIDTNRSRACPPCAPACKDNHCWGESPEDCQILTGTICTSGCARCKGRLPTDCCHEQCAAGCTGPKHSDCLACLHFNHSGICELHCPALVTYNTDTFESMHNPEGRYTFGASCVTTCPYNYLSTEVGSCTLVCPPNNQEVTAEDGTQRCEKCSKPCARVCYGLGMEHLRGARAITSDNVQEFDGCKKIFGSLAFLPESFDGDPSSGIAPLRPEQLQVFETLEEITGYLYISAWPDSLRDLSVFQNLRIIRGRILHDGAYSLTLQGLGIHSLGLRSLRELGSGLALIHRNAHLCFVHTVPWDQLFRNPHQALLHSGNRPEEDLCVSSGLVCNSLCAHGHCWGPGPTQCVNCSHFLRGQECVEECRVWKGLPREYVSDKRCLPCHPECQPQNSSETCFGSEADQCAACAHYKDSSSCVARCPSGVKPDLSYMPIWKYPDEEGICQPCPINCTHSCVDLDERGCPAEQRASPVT

Row | Substance | dependence of uptake/binding on EGFR (HER2 positive cell lines) | Tissue uptake, SKOV-3 (SKOV-3; 60 min) [% ID/g tissue] | tumor/muscle ratio (SKOV-3; SKOV-3 tumor, 1 h) | Tissue uptake, MCF7-p95HER2 (MCF7-p95HER2) [% ID/g tissue] | Tissue uptake, MDA-MB-361 (MDA-MB-361) [% ID/g tissue] | interaction with human p95HER2 (words) (human p95HER2) | interaction with human p95HER2 (words) (human p95HER2; [1]) | interaction with rat HER2 (words) (rat HER2) | interaction with rat HER2 (words) (rat HER2; [1]) | interaction with rat HER2 (words) (rat HER2; listed as GE-226)
1 | [^18F]GE-226: HER2-binding 18F-radiolabelled Affibody molecule ZHER2:2891 | independent of presence of other targets like EGFR; also recorded: independent of expression | 17.35 ± 0.83 | ~60 | 6.55 ± 0.13 | 17.00 ± 2.98 |  |  |  |  | 
2 | [^19F]GE-226: cold unlabeled non-radioactive 19F analogue of the tracer, used for SPR and blocking |  |  |  |  |  | did not interact | did not interact | did not interact | did not interact | not
